The record followed here is article PMC4610036 (Journal of molecular catalysis. B, Enzymatic, 2015).

The data set concerns the molecule itself. Kind of data set: crystal structure.

B1: β-ketoacyl thiolase B of Ralstonia eutropha (enzyme, UniProt Q0KBP1 1-394, looked up)
chain: MTREVVVVSGVRTAIGTFGGSLKDVAPAELGALVVREALARAQVSGDDVGHVVFGNVIQTEPRDMYLGRVAAVNGGVTINAPALTVNRLCGSGLQAIVSAAQTILLGDTDVAIGGGAESMSRAPYLAPAARWGARMGDAGLVDMMLGALHDPFHRIHMGVTAENVAKEYDISRAQQDEAALESHRRASAAIKAGYFKDQIVPVVSKGRKGDVTFDTDEHVRHDATIDDMTKLRPVFVKENGTVTAGNASGLNDAAAAVVMMERAEAERRGLKPLARLVSYGHAGVDPKAMGIGPVPATKIALERAGLQVSDLDVIEANEAFAAQACAVTKALGLDPAKVNPNGSGISLGHPIGATGALITVKALHELNRVQGRYALVTMCIGGGQGIAAIFERI
Consider B1, for which the stoichiometry N (usually the number of molecules, sites or subunits per partner or assembly) is 4.
